Four molecules from PMC6510891, “Functional duplication of Rap1 in methylotrophic yeasts” can be followed below.

For data set [1], the target named is T1, HpRap1B (Hansenula polymorpha DL-1, UniProt W1QDN2 1-576).
T1 sequence: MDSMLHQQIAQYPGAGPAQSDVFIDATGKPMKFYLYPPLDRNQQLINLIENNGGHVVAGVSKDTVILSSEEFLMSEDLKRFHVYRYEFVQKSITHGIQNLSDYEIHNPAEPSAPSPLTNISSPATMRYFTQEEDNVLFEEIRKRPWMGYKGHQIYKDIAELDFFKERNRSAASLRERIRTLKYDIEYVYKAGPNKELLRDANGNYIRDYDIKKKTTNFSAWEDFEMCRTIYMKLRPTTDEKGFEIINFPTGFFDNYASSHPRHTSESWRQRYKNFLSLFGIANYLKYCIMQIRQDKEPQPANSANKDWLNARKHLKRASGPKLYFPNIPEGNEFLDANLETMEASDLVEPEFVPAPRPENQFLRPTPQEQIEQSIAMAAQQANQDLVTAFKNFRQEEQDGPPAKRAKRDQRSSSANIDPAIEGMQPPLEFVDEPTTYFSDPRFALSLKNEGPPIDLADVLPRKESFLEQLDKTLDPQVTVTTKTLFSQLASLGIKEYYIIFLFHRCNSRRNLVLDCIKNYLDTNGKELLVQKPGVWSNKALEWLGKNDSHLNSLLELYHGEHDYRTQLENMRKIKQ
The data set is described as follows: EMSA; up to 250 nM protein, 50 nM DNA; SPR: 10 mM HEPES-NaOH pH 7.5, 150 mM NaCl, 0.5 mM DTT, 0.05% Tween 20, 1 mg/ml BSA, 0.02 mg/ml salmon sperm DNA; competition 2 nM protein with 20 or 200 nM competitor. EMSA: 20 mM HEPES-NaOH pH 7.5, 50 mM NaCl, 0.2 mg/ml BSA, 5% glycerol, 0.1 mg/ml salmon sperm DNA, room temperature. Particulars: protein: recombinant; label: 5' FAM on strand 1; blunt. (A gel shift assay detects complexes by their altered migration in electrophoresis.)

Data set [2] addresses T2, HpRap1A (Hansenula polymorpha DL-1, UniProt W1Q7Z6 1-613).
T2 sequence: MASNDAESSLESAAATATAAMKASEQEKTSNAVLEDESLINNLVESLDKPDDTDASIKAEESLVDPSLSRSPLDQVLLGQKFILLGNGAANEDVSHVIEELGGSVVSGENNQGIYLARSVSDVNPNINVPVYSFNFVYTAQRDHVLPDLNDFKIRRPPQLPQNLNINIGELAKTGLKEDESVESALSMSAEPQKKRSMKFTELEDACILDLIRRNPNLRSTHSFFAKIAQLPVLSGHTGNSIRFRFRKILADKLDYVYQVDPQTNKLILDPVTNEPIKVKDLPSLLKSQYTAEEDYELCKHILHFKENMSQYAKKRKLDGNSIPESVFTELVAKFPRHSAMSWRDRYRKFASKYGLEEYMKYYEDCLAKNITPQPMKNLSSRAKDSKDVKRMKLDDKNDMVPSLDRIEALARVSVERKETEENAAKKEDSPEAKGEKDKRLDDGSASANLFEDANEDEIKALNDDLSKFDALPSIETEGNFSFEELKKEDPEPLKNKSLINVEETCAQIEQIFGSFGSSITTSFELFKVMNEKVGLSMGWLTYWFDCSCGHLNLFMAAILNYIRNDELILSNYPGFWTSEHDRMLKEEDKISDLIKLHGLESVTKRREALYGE
Described as above. Particulars: protein: recombinant; label: 5' FAM on strand 1; blunt.

Data set [3] deals with T1, HpRap1B. The data set is described as follows: SPR; kinetic fit; equilibrium Kd 11±1; SPR: 10 mM HEPES-NaOH pH 7.5, 150 mM NaCl, 0.5 mM DTT, 0.05% Tween 20, 1 mg/ml BSA, 0.02 mg/ml salmon sperm DNA; competition 2 nM protein with 20 or 200 nM competitor. EMSA: 20 mM HEPES-NaOH pH 7.5, 50 mM NaCl, 0.2 mg/ml BSA, 5% glycerol, 0.1 mg/ml salmon sperm DNA, room temperature. Particulars: protein: recombinant; 3' overhang 20 nt on strand 2.

In data set [4] the target is T2, HpRap1A. The data set is described as follows: SPR; SPR: 10 mM HEPES-NaOH pH 7.5, 150 mM NaCl, 0.5 mM DTT, 0.05% Tween 20, 1 mg/ml BSA, 0.02 mg/ml salmon sperm DNA; competition 2 nM protein with 20 or 200 nM competitor. EMSA: 20 mM HEPES-NaOH pH 7.5, 50 mM NaCl, 0.2 mg/ml BSA, 5% glycerol, 0.1 mg/ml salmon sperm DNA, room temperature. Particulars: protein: recombinant; 3' overhang 20 nt on strand 2. For orientation: SPR reads the build-up and loss of mass on a sensor chip optically.

For data set [5], the target named is T1, HpRap1B. The data set is described as follows: competition SPR; score +++ vs PICKU surface; SPR: 10 mM HEPES-NaOH pH 7.5, 150 mM NaCl, 0.5 mM DTT, 0.05% Tween 20, 1 mg/ml BSA, 0.02 mg/ml salmon sperm DNA; competition 2 nM protein with 20 or 200 nM competitor. EMSA: 20 mM HEPES-NaOH pH 7.5, 50 mM NaCl, 0.2 mg/ml BSA, 5% glycerol, 0.1 mg/ml salmon sperm DNA, room temperature. The following applies: protein: recombinant; blunt.

Data set [6] deals with T2, HpRap1A. The data set is described as follows: competition SPR; score - vs VIIrAbs surface; SPR: 10 mM HEPES-NaOH pH 7.5, 150 mM NaCl, 0.5 mM DTT, 0.05% Tween 20, 1 mg/ml BSA, 0.02 mg/ml salmon sperm DNA; competition 2 nM protein with 20 or 200 nM competitor. EMSA: 20 mM HEPES-NaOH pH 7.5, 50 mM NaCl, 0.2 mg/ml BSA, 5% glycerol, 0.1 mg/ml salmon sperm DNA, room temperature. The following applies: protein: recombinant; blunt.

In data set [7] the target is T1, HpRap1B. The data set is described as follows: SPR; kinetic fit; equilibrium Kd 13±3; SPR: 10 mM HEPES-NaOH pH 7.5, 150 mM NaCl, 0.5 mM DTT, 0.05% Tween 20, 1 mg/ml BSA, 0.02 mg/ml salmon sperm DNA; competition 2 nM protein with 20 or 200 nM competitor. EMSA: 20 mM HEPES-NaOH pH 7.5, 50 mM NaCl, 0.2 mg/ml BSA, 5% glycerol, 0.1 mg/ml salmon sperm DNA, room temperature. The following applies: protein: recombinant; 3' overhang 20 nt on strand 2.

B1: FAM-HANPO2 (dsDNA)
DNA 1: GGGTGGCGGGGTGGCG
DNA 2: CGCCACCCCGCCACCC
With B1, the values for the binding result in the data set with HpRap1B [1] and in the data set with HpRap1A [2] were “binds” and “no binding”, respectively.

B2: HANPO2 (SPR) (dsDNA)
DNA 1: GGGTGGCGGGGTGGCG
DNA 2: CGCCACCCCGCCACCCCCTCTACGTCCTCCTGCTCC
Usually Kd stands for the constant that tells how readily two partners part at equilibrium. For B2, in the data set with HpRap1B [3], the Kd amounted to 12 ± 1 nM. Also, in the data set with HpRap1A [4], the binding result is on record as “no binding”.

B3: PICKU (competitor) (dsDNA)
DNA 1: TGAACTAGGAGCGAGGTGTGTTAC
DNA 2: GTAACACACCTCGCTCCTAGTTCA
On to B3, for which the binding result with HpRap1B [5] was “binds”; in the data set with HpRap1A [6] it was “no binding”.

B4: HANPO4 (SPR) (dsDNA)
DNA 1: GGGTGGCGGGGTGGCGGGGTGGCGGGGTGGCG
DNA 2: CGCCACCCCGCCACCCCGCCACCCCGCCACCCCCTCTACGTCCTCCTGCTCC
Turning to B4, in the data set with HpRap1B [7], the dissociation constant (Kd) amounted to 12 ± 3 nM.
